These results are taken from patent US20260258123A1 (MOMENTA PHARMACEUTICALS, published 2026).

Test [1] addresses T1, endogenous human FcRn in cells (human, UniProt P55899 24-365).
T1 construct: whole, on cells; Mostly intracellular (endosomal); cells were fixed and permeabilised before staining in most assays. b2m is not mentioned; also called endogenously expressed human FcRn; FcRn in THP-1 cells, HAECs, HUVECs and HVTs
Nature of the test: flow cytometry on fixed and permeabilised THP-1 cells (endogenous human FcRn), pH 7.4. (In general: A flow cytometer gives signals particle by particle.)

For test [2], the target named is T1, endogenous human FcRn in cells. Kind of test: FcRn occupancy in HUVECs: unlabeled N027 for 1 hour at 37 C, free FcRn stained with VivoTag645-N027, flow cytometry.
The target is the same in test [3]. Nature of the test: FcRn occupancy in HAECs: unlabeled N027 for 1 hour at 37 C, free FcRn stained with VivoTag645-N027, flow cytometry.
The target of test [4] is T2, recombinant human FcRn (rhFcRn) (human, UniProt P55899 24-297; P16213 21-119). Kind of test: SPR (ProteOn XPR 36), mAb captured on anti-human Fc, rhFcRn as analyte, pH 7.4, 298K.
The target in test [5] is T1, endogenous human FcRn in cells. Kind of test: FcRn occupancy in HVTs: unlabeled N027 for 1 hour at 37 C, free FcRn stained with VivoTag645-N027, flow cytometry.
Test [6] addresses T3, cynomolgus monkey FcRn extracellular domain, GPI-linked, on the surface of HEK 293 cells (cynomolgus monkey, UniProt Q8SPV9 24-297; Q8SPW0 21-119, C-terminal engineered GPI linkage).
T3 construct: extracellular domain; b2m is not mentioned for these cells
Nature of the test: competition flow cytometry on HEK 293 cells with cell-surface GPI-linked cynomolgus monkey FcRn at pH 6.0; inhibition of the binding of 66 nM fluorescent probe-labeled non-specific IgG; readout cell bound IgG (MFI).

The target of test [7] is T2, recombinant human FcRn (rhFcRn). Kind of test: SPR method of Example 2; differs from the 19.4 pM of Table 3. Background: In SPR one partner is held on a chip, and binding of the other changes the refractive index at the surface.
The target of test [8] is T1, endogenous human FcRn in cells. Kind of test: cell-based or functional assay.

B1: N027 (antibody, human IgG1, lambda, N297A)
heavy: not shown
light: QSALTQPASVSGSPGQSITISCTGTGSDVGSYNLVSWYQQHPGKAPKLMIYGDSERPSGVSNRFSGSKSGNTASLTISGLQAEDEADYYCSSYAGSGIYVFGTGTKVTVLGQPKAAPSVTLFPPSSEELQANKATLVCLISDFYPGAVTVAWKADSSPVKAGVETTTPSKQSNNKYAASSYLSLTPEQWKSHKSYSCQVTHEGSTVEKTVAPTECS
notes: IgG1, lambda light chain; Fluorophore-labelled forms served as detection reagent in the occupancy assays; also called anti-FcRn antibody N027; VivoTag645-labeled N027
As to B1, the EC50 in test [1] came out at 3 nM; in test [6], 4.46 nM. The IC50 in test [2] is 0.15 µg/mL; in test [3] it was 0.23 µg/mL; in test [5], 0.15 µg/mL. Also, the Kd in test [4] was 0.0194 nM; in test [7], 0.0193 nM. The koff in test [4] came to 2.31e-05 s⁻¹. Also, the kon in test [4] worked out at 1.19e+06 M⁻¹ s⁻¹. Further, in test [8], the “intracellular IgG accumulation (VivoTag645-IgG, flow cytometry), ~IC50, HAECs” value was roughly 0.12 µg/mL. Besides, the “intracellular IgG accumulation (VivoTag645-IgG, flow cytometry), ~IC50, HUVECs” value in test [8] is roughly 0.15 µg/mL. The “intracellular IgG accumulation (VivoTag645-IgG, flow cytometry), ~IC50, HVTs” value in test [8] was roughly 0.07 µg/mL.

B2: N026 (antibody, human IgG1, lambda, N297A)
heavy: not shown
light: QSALTQPASVSGSPGQSITISCTGTGSDVGSYNLVSWYQQHPGKAPKLMIYGDSERPSGVSNRFSGSKSGNTASLTISGLQAEDEADYYCSSYAGSGIYVFGTGTKVTVLGQPKAAPSVTLFPPSSEELQANKATLVCLISDFYPGAVTVAWKADSSPVKAGVETTTPSKQSNNKYAASSYLSLTPEQWKSHKSYSCQVTHEGSTVEKTVAPTECS
notes: IgG1, lambda light chain; also called anti-FcRn antibody N026
Take B2: in test [4], the Kd was 0.0365 nM, the koff came out at 4.44e-05 s⁻¹ and the kon stood at 1.22e+06 M⁻¹ s⁻¹. In test [6], this molecule registered an EC50 of 2.68 nM.

B3: N022 (antibody, human IgG1, lambda, N297A)
heavy: not shown
light: QSALTQPASVSGSPGQSITISCTGTGSDVGSYNLVSWYQQHPGKAPKLMIYGDSERPSGVSNRFSGSKSGNTASLTISGLQAEDEADYYCSSYAGSGIYVFGTGTKVTVLGQPKAAPSVTLFPPSSEELQANKATLVCLISDFYPGAVTVAWKADSSPVKAGVETTTPSKQSNNKYAASSYLSLTPEQWKSHKSYSCQVTHEGSTVEKTVAPTECS
notes: also called anti-FcRn antibody N022
As for B3, in test [4], the Kd is 0.031 nM, the koff worked out at 4.42e-05 s⁻¹ and the kon turned out to be 1.42e+06 M⁻¹ s⁻¹. In addition, it took 4.8 nM to reach a half-maximal effect in test [6] (EC50).

B4: N023 (antibody, human IgG1, lambda, N297A)
heavy: not shown
light: QSALTQPASVSGSPGQSITISCTGTGSDVGSYNLVSWYQQHPGKAPKLMIYGDSERPSGVSNRFSGSKSGNTASLTISGLQAEDEADYYCSSYAGSGIYVFGTGTKVTVLGQPKAAPSVTLFPPSSEELQANKATLVCLISDFYPGAVTVAWKADSSPVKAGVETTTPSKQSNNKYAASSYLSLTPEQWKSHKSYSCQVTHEGSTVEKTVAPTECS
notes: also called anti-FcRn antibody N023
Consider B4, for which, in test [4], the Kd is 0.0314 nM, the koff amounted to 2.91e-05 s⁻¹ and the kon is 927000 M⁻¹ s⁻¹. In test [6], this molecule yielded an EC50 of 5.16 nM.

B5: N024 (antibody, human IgG1, lambda, N297A)
heavy: not shown
light: QSALTQPASVSGSPGQSITISCTGTGSDVGSYNLVSWYQQHPGKAPKLMIYGDSERPSGVSNRFSGSKSGNTASLTISGLQAEDEADYYCSSYAGSGIYVFGTGTKVTVLGQPKAAPSVTLFPPSSEELQANKATLVCLISDFYPGAVTVAWKADSSPVKAGVETTTPSKQSNNKYAASSYLSLTPEQWKSHKSYSCQVTHEGSTVEKTVAPTECS
notes: IgG1, lambda light chain; also called anti-FcRn antibody N024
B5: in test [4], the Kd was found to be 0.0355 nM, the koff turned out to be 4.03e-05 s⁻¹ and the kon is 1.13e+06 M⁻¹ s⁻¹. This molecule also gave an EC50 in test [6] of 3.51 nM.

The EC50 is the midpoint of the concentration-response curve. What is called IC50 is the concentration needed to halve the response being measured. As a reminder, the Kd is the free concentration of one partner at which half of the binding sites on the other are occupied at equilibrium, for simple one-to-one binding. As a reminder, the koff is the first-order rate constant of dissociation. A word on the kon: it is the second-order rate constant of association.
